From patent publication US11306156
Values joined by “and” are separate entries in the source; they are usually repeats but may differ in a detail not shown here. Identical values can stand only once. Blank lines part the entries; values can stand above or below the substance they belong to.

Assays:
[1] = target: tissue factor (TF) antigen (UniProt P13726); assay: SPR (ProteOn), Fab captured via anti-penta-His, TF injected, 1:1 fit
[2] = target: tissue factor (TF) antigen (UniProt P13726); assay: SPR (ProteOn), Fab captured via anti-penta-His, TF injected, 1:1 fit; reference wild-type D3H44 Fab
[3] = target: tissue factor (TF) antigen (UniProt P13726); assay: SPR as for KD; reference: wild-type D3H44 Fab; batch C (+)
[4] = target: tissue factor (TF) antigen (UniProt P13726); assay: SPR, ProteOn XPR36; His-tagged Fab captured on anti-penta-His, TF injected; 1:1 fit; batch C (+)
[5] = target: tissue factor (TF) antigen (UniProt P13726); assay: SPR, Fab captured on anti-penta His surface, TF as analyte, 1:1 fit
[6] = target: tissue factor (TF) antigen (UniProt P13726); assay: SPR, Fab captured on anti-penta-His, TF as analyte, 1:1 fit
[7] = target: tissue factor (TF) antigen (UniProt P13726); assay: SPR, Fab captured on anti-penta-His, TF as analyte; against wild-type D3H44 Fab
[8] = target: tissue factor (TF) antigen (UniProt P13726); assay: vs wild-type D3H44 Fab (estimated wt KD […]); SPR; estimated (*) from Fab differing only in L chain tag
[9] = target: tissue factor (TF) antigen (UniProt P13726); assay: SPR, Fab captured on anti-penta-His, TF as analyte, 1:1 fit; estimated (*) from Fab differing only in L chain tag
[10] = target: tissue factor (TF) antigen (UniProt P13726); assay: SPR (ProteOn XPR36), Fab captured on anti-penta His surface, TF injected, 1:1 fit; batch C ('+'); reference wild-type D3H44 Fab
[11] = target: tissue factor (TF) antigen (UniProt P13726); assay: SPR (ProteOn XPR36), Fab captured on anti-penta His surface, TF injected, 1:1 fit; batch C ('+')
[12] = target: tissue factor (TF) antigen (human (from the antibody's name 'anti-human tissue factor'; not stated for the antigen lot in the assay)) (UniProt P13726); assay: SPR (ProteOn XPR36), Fab captured on anti-penta His, TF analyte; against wild-type D3H44 Fab; batch C (+)
[13] = target: tissue factor (TF) antigen (human (from the antibody's name 'anti-human tissue factor'; not stated for the antigen lot in the assay)) (UniProt P13726); assay: SPR (ProteOn XPR36): Fab captured via His tag on anti-penta His surface, TF injected, 1:1 fit; batch C (+)
[14] = target: tissue factor (TF) antigen (UniProt P13726); assay: SPR (ProteOn XPR36), Fab captured on anti-penta His surface, TF injected, 1:1 fit; reference wild-type D3H44 Fab
[15] = target: tissue factor (TF) antigen (UniProt P13726); assay: SPR (ProteOn XPR36), Fab captured on anti-penta His surface, TF injected, 1:1 fit
[16] = target: D3H44 light chain S131K (Kabat), N-terminal HA or FLAG tag; assay: LCCA co-expression, competing light chain m37, L1:L2 DNA 1:3 normalized to 1:1, SPR tag read-out
[17] = target: D3H44 light chain Q124E_T180E (Kabat), N-terminal HA or FLAG tag; assay: LCCA co-expression, competing light chain m36, L1:L2 DNA 1:3 normalized to 1:1, SPR tag read-out
[18] = target: D3H44 light chain Q124E_Q160E_T180E_C214S; assay: LCCA, SPR tag readout, L1:L2 DNA 1:3 normalized to 1:1; competitor m20
[19] = target: D3H44 light chain P44F_S131K; assay: LCCA, SPR tag readout, L1:L2 DNA 1:9 normalized to 1:1; competitor m22
[20] = target: D3H44 light chain Q124E_Q160E_T180E_C214S; assay: LCCA, SPR tag readout, L1:L2 DNA 1:9 normalized to 1:1; competitor m20
[21] = target: D3H44 light chain P44F_S131K; assay: LCCA, SPR tag readout, L1:L2 DNA 1:3 normalized to 1:1; competitor m22
[22] = target: tissue factor (TF) antigen (UniProt P13726); assay: SPR, Fab captured on anti-penta-His, TF as analyte, 1:1 fit; estimated value from Fab differing only in L chain tag

Substance: D3H44 Fab heterodimer, H1 L124A_L143F_Q179K / L1 Q124E_V133W_S176T_T178L_T180E (H1L1 Fab of LCCA Set # 9096, 9095 and 9094)
Kd [6]: 0.17 nM
change in median KD compared to wild type, -(log(KD design)-log(KD wt)) [7]: -0.04

Substance: H1L1 Fab heterodimer of LCCA set 9651 (D3H44 Fab, H1 L143E_K145T_Q179E, L1 Q124R_Q160K_T178R; L chain tag differs from the measured Fab)
change in median KD compared to wild type, -(log(KD design)-log(KD wt)) [8]: 0.02
Kd [9]: 0.15 nM

Substance: D3H44 Fab heterodimer, H1L1 of LCCA Sets # 9807 and 9808 (H1 Q179R; L1 Q124E_S176L_T180E)
change in median KD compared to wild type, -(log(KD design)-log(KD wt)) [3]: -0.02
Kd [4]: 0.17 nM

Substance: D3H44 Fab heterodimer, H1 Q39R_H172R_S186R / L1 Q38E_Q124E_Q160E_T180E (H1L1 Fab of LCCA Set # 9824)
Change in median values of KD of h1l1 Fab heterodimer compared to wild type (-(log(KD design)-log(KD wt))) [10]: 0.03
Kd [11]: 0.15 nM

Substance: D3H44 Fab heavy chain L45P_K145T_H172R_Q179E
H1L1:H1L2 normalized median ratio [18]: 6%
H2L2:H2L1 normalized median ratio [18]: 6%
H1L1:H1L2 normalized median ratio [19]: 92%
H1L1:H1L2 normalized median scalar value ln(r1/f1) [19]: 2.42
H2L2:H2L1 normalized median ratio [19]: 92%
H1L1:H1L2 normalized median ratio [20]: 8%
H2L2:H2L1 normalized median ratio [20]: 8%
H1L1:H1L2 normalized median ratio [21]: 94%
H1L1:H1L2 normalized median scalar value ln(r1/f1) [21]: 2.78
H2L2:H2L1 normalized median ratio [21]: 94%

Substance: D3H44 Fab heterodimer, H1 Q179R / L1 S131E (H1L1 Fab of LCCA Set # 9984)
Change in median values of KD of h1l1 Fab heterodimer compared to wild type (-(log(KD design)-log(KD wt))) [10]: 0
Kd [11]: 0.16 nM

Substance: D3H44 Fab heterodimer (H1L1) of LCCA Set # 9397: H1 L124R_Q179K, L1 V133G_Q160E_S176D_T180E
Kd [1]: 0.19 nM
change in median KD compared to wild type, -(log(KD design)-log(KD wt)) [2]: -0.08

Substance: H1L1 Fab heterodimer of LCCA set 9623 (D3H44 Fab, H1 L143E_K145T_Q179D, L1 Q124R_Q160K_T178R; L chain tag differs from the measured Fab)
change in median KD compared to wild type, -(log(KD design)-log(KD wt)) [8]: 0.39
Kd [9]: 0.06 nM

Substance: H1L1 Fab heterodimer of LCCA sets 9140, 9142, 9144 and 9146 (D3H44 Fab, H1 L124E_K145T_Q179E, L1 S131K_V133G_S176R; L chain tag differs from the measured Fab)
change in median KD compared to wild type, -(log(KD design)-log(KD wt)) [8]: 0
Kd [9]: 0.16 nM

Substance: D3H44 Fab heterodimer, H1 S186K / L1 Q124E_T178E_T180E (H1L1 Fab of LCCA Set # 9852)
Change in median values of KD of h1l1 Fab heterodimer compared to wild type (-(log(KD design)-log(KD wt))) [10]: 0.02
Kd [11]: 0.15 nM

Substance: D3H44 Fab heterodimer (H1L1) of LCCA Sets # 9419, 9420, 9423, 9425, 9426: H1 L124R_Q179K, L1 V133G_S176D_T178E_T180E
Kd [1]: 0.23 nM
change in median KD compared to wild type, -(log(KD design)-log(KD wt)) [2]: -0.16

Substance: H1L1 Fab heterodimer of LCCA sets 9663 and 9666 (D3H44 Fab, H1 L143E_K145T_Q179E, L1 Q124R_T178R; L chain tag differs from the measured Fab)
change in median KD compared to wild type, -(log(KD design)-log(KD wt)) [8]: -0.23
Kd [9]: 0.27 nM

The next lines start with the values.

Kd [1]: 0.13 nM
change in median KD compared to wild type, -(log(KD design)-log(KD wt)) [2]: 0.03 and 0.08
Substance: D3H44 Fab heterodimer (H1L1) of LCCA Sets # 9120, 9121: H1 L124E_H172T, L1 V133G_N137K_S174R_S176R

change in median KD compared to wild type, -(log(KD design)-log(KD wt)) [3]: 0.12
Kd [4]: 0.12 nM
Change in KD with respect to wild type (-(log(KD design) - log(KD wt))) [5]: 0.12
Kd [5]: 0.12 nM
Substance: D3H44 Fab heterodimer, H1L1 of LCCA Set # 9611 (H1 L143E_K145T_H172R; L1 Q124R_Q160K_T178R)

Kd [6]: 0.18 nM
change in median KD compared to wild type, -(log(KD design)-log(KD wt)) [7]: -0.07
Substance: D3H44 Fab heterodimer, H1 L124R_S186K / L1 V133G_S176D_T178D_T180E (H1L1 Fab of LCCA Set # 9471 and 9473)

Change in median values of KD of h1l1 Fab heterodimer compared to wild type (-(log(KD design)-log(KD wt))) [10]: 0.13
Kd [11]: 0.12 nM
Substance: D3H44 Fab heterodimer, H1 Q179K / L1 Q124E_S131T_T178F_T180E (H1L1 Fab of LCCA Sets # 9778, 9777)

Change in median values of KD of h1l1 Fab heterodimer compared to wild type (-(log(KD design)-log(KD wt))) [12]: -0.01
Kd [13]: 0.16 nM
Substance: D3H44 Fab heterodimer, H1 Q39E_K145T_Q179E / L1 Q38R_S131K (H1L1 Fab of LCCA set 9814)

Change in median values of KD of h1l1 Fab heterodimer compared to wild type (-(log(KD design)-log(KD wt))) [14]: -0.07
Kd [15]: 0.18 nM
Substance: D3H44 Fab heterodimer, H1 L124R_S186K / L1 V133G_S176D_T178D_T180E (H1L1 Fab of LCCA Sets # 9484, 9481, 9483)

H2L2:H2L1 normalized median ratio [16]: 4 of 100
H2L2:H2L1 normalized median ratio [17]: 96 of 100
Substance: D3H44 Fab heavy chain S186R (Kabat), C-terminal ABD2-His6 tag

Kd [6]: 0.3 nM
change in median KD compared to wild type, -(log(KD design)-log(KD wt)) [7]: -0.28
Substance: D3H44 Fab heterodimer, H1 L45P_L143E_K145T_Q179E / L1 P44F_Q124R_Q160K_T178R (H1L1 Fab of LCCA Set # 9754)

change in median KD compared to wild type, -(log(KD design)-log(KD wt)) [3]: 0.15
Kd [4]: 0.11 nM
Substance: D3H44 Fab heterodimer, H1L1 of LCCA Sets # 9881 and 9882 (H1 S186R; L1 Q124E_S131T_T178F_T180E)

Change in median values of KD of h1l1 Fab heterodimer compared to wild type (-(log(KD design)-log(KD wt))) [14]: -0.23
Kd [15]: 0.26 nM
Substance: D3H44 Fab heterodimer, H1 L124R_S186K / L1 Q124E_V133G_S176D_T178D_T180E (H1L1 Fab of LCCA Sets # 9451, 9459, 9460, 9461, 9449)

Change in KD with respect to wild type (-(log(KD design) - log(KD wt))) [22]: -0.12
Kd [22]: 0.21 nM
Substance: D3H44 Fab heterodimer, H L124E_L143E_K145T / L Q124K_V133G_S176R_T178K

Change in median values of KD of h1l1 Fab heterodimer compared to wild type (-(log(KD design)-log(KD wt))) [12]: 0.03
Kd [13]: 0.15 nM
Substance: D3H44 Fab heterodimer, H1 Q39E_L143E_K145T_H172R_Q179E / L1 Q38R_Q124R_Q160K_T178R (H1L1 Fab of LCCA set 9819)

Change in KD with respect to wild type (-(log(KD design) - log(KD wt))) [22]: -0.07
Kd [22]: 0.18 nM
Substance: D3H44 Fab heterodimer, H L124E_L143E_K145T / L Q124K_V133G_S176R_T178R

Change in median values of KD of h1l1 Fab heterodimer compared to wild type (-(log(KD design)-log(KD wt))) [14]: -0.15
Kd [15]: 0.22 nM
Substance: D3H44 Fab heterodimer, H1 L124R_Q179K / L1 Q124E_V133G_S176D_T178E_T180E (H1L1 Fab of LCCA Set # 9388)

Kd [6]: 0.22 nM
change in median KD compared to wild type, -(log(KD design)-log(KD wt)) [7]: -0.15
Substance: D3H44 Fab heterodimer, H1 L124R_Q179K / L1 Q124E_V133G_S176D_T178E_T180E (H1L1 Fab of LCCA Set # 9392, 9394, 9395, 9376, 9380 and 9384)

Change in median values of KD of h1l1 Fab heterodimer compared to wild type (-(log(KD design)-log(KD wt))) [14]: -0.15
Kd [15]: 0.22 nM
Substance: D3H44 Fab heterodimer, H1 L124R_S186R / L1 V133G_S176D_T178E_T180E (H1L1 Fab of LCCA Sets # 9541, 9544, 9542)

Change in median values of KD of h1l1 Fab heterodimer compared to wild type (-(log(KD design)-log(KD wt))) [12]: -0.07
Kd [13]: 0.18 nM
Substance: D3H44 Fab heterodimer, H1 Q39E_L143E_K145T_H172R / L1 Q38R_Q124R_Q160K_T178R (H1L1 Fab of LCCA set 9818)
